Results: US20220098323A1 (US Dept. of Health and Human Services, published 2022)
Where a chain is given by its changes, count along the chain named.

T1: human GPC6 (human, UniProt Q9Y625 24-529, limits assumed)
T1 sequence (looked up): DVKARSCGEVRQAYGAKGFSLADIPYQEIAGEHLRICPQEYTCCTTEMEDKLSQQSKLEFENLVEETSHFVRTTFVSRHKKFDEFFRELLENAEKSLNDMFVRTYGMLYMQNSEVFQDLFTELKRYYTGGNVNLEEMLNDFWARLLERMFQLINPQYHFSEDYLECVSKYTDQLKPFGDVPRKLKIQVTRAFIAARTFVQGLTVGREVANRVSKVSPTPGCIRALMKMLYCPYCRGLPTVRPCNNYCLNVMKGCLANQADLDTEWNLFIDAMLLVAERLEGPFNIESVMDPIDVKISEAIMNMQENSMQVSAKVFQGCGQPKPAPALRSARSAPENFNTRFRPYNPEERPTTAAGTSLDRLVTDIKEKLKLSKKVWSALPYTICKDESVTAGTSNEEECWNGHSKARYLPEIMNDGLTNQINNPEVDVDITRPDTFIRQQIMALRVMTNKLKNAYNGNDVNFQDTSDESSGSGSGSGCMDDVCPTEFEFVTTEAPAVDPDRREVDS

T2: human GPC2 (human, UniProt Q8N158 24-554, limits assumed)
T2 sequence (looked up): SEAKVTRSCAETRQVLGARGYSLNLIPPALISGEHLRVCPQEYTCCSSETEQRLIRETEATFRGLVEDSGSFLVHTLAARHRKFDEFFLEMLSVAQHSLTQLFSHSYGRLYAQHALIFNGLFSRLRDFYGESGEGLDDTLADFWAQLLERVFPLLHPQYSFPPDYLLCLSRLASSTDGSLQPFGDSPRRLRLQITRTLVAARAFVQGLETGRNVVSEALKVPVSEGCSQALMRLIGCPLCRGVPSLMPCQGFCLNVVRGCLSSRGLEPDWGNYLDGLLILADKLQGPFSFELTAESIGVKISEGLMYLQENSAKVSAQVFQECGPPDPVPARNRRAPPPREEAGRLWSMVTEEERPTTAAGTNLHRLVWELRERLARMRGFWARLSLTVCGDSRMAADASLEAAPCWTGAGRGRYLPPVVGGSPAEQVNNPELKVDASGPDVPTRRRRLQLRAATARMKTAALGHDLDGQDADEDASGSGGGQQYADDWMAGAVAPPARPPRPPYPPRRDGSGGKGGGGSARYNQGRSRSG

T3: human GPC5 (printed as 'GPCS') (human, UniProt P78333 25-554, limits assumed)
T3 construct: The text prints 'GPCS'
T3 sequence (looked up): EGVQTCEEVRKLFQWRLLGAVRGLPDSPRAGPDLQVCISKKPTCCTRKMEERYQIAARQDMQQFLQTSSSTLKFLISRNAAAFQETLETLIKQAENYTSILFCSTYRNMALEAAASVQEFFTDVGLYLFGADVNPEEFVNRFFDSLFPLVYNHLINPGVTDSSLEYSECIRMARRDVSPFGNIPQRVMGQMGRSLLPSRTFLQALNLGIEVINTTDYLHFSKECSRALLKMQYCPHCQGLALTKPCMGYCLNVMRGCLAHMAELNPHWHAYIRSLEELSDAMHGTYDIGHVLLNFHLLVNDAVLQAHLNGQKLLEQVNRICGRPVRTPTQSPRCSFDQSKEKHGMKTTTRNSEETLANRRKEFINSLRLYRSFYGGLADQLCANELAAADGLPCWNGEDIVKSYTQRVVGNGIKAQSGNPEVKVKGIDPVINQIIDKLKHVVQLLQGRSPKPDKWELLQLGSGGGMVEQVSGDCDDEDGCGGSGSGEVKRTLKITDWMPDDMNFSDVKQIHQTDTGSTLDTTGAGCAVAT

T4: mouse GPC1 (mouse, UniProt Q9QZF2 24-529, limits assumed)
T4 construct: also called MsGPC1
T4 sequence (looked up): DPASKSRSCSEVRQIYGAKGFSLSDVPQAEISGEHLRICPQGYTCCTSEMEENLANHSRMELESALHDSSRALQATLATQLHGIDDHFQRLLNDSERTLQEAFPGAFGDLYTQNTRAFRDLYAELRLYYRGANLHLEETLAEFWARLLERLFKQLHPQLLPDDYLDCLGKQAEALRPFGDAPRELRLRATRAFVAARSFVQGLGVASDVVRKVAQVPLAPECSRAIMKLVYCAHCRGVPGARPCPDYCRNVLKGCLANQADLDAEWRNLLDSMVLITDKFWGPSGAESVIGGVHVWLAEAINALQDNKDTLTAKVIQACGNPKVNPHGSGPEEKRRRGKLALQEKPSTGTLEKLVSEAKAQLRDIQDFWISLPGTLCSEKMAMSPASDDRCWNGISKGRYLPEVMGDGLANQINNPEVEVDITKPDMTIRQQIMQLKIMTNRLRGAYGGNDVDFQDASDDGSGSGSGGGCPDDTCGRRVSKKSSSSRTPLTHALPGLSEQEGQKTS

T5: human glypican-1 (GPC1) (human, UniProt P35052 24-530)
T5 construct: also called human GPC1; HuGPC1
T5 sequence (looked up): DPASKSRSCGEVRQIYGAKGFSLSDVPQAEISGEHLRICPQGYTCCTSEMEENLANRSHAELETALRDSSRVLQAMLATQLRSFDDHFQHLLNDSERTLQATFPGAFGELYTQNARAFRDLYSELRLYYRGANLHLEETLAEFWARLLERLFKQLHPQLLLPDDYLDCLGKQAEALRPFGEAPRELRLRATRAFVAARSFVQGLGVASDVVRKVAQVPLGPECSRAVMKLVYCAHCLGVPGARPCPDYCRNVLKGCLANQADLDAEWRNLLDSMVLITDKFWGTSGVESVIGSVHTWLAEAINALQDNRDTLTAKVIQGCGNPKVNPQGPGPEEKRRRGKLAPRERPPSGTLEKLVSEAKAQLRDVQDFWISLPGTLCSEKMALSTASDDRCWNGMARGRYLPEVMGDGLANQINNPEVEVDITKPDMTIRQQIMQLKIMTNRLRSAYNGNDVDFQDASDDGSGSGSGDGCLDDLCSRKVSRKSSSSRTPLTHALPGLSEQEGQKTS

T6: cell-surface GPC1 on GPC1-expressing tumor cells (2B9 KLM, H8, T3M4) (UniProt P35052 24-530, limits assumed)
T6 sequence (looked up): T5 sequence (looked up)

B1: camel single-domain antibody D4 (VHH)
VHH: QVQLVESGGGLVQPGGSLRLSCVASGYSYSIGYMAWFRQAPGKERAWVASRYTGDGGAVFDDAVKGRFTTSQESAGNTFDLQMDSLKPEDTAMYYCAAKGPGFGRWEYWGRGTQVTVSS
notes: also called D4 antibody; VHH antibody D4
B2: D4-AAA-D4-LR immunotoxin (other)
chain: MQVQLVESGGGLVQPGGSLRLSCVASGYSYSIGYMAWFRQAPGKERAWVASRYTGDGGAVFDDAVKGRFTTSQESAGNTFDLQMDSLKPEDTAMYYCAAKGPGFGRWEYWGRGTQVTVSSAAAQVQLVESGGGLVQPGGSLRLSCVASGYSYSIGYMAWFRQAPGKERAWVASRYTGDGGAVFDDAVKGRFTTSQESAGNTFDLQMDSLKPEDTAMYYCAAKGPGFGRWEYWGRGTQVTVSSKLKASGGRHRQPRGWEQLGGGGGSPTGAEFLGDGGDVSFSTRGTQNWTVERLLQAHRQLEERGYVFVGYHGTFLEAAQSIVFGGVRARSQDLDAIWRGFYIAGDPALAYGYAQDQEPDARGRIRNGALLRVYVPRSSLPGFYRTSLTLAAPEAAGEVERLIGHPLPLRLDAITGPEEEGGRLETILGWPLAERTVVIPSAIPTDPRNVGGDLDPSSIPDKEQAISALPDYASQPGKPPREDLK
notes: also called bivalent D4 immunotoxin; D4-D4-LR
B3: D4-GGS-D4-LR immunotoxin (other)
chain: B2 chain with A121G, A122G, A123S
notes: as for B2
B4: mouse monoclonal antibody HM2 (antibody, V domains shown)
VH: EVQLQQSGAELVRPGASVKLSCTASGFNIKDDYMHWVKQRPEQGLEWIGWIDPENGDTEYASKFQGKATITADTSSNTAYLQLSSLTSEDTAVYYCTRSSVGYWGQGTTLTVSS
VL: DVVMTQTPLSLPVSLGDQASISCRSSQSLVHSNGNTYLHWYLQKPGQSPKLLIYKVSNRFSGVPDRFSGSGSGTYFTLKISRVEAEDLGVYFCSQRTHVPYTFGGGTKLEIK
notes: Mouse hybridoma antibody; also called HM2 antibody; HM2 anti-GPC1 monoclonal antibody
B5: D4-LR immunotoxin (other)
chain: MQVQLVESGGGLVQPGGSLRLSCVASGYSYSIGYMAWFRQAPGKERAWVASRYTGDGGAVFDDAVKGRFTTSQESAGNTFDLQMDSLKPEDTAMYYCAAKGPGFGRWEYWGRGTQVTVSSKLKASGGRHRQPRGWEQLGGGGGSPTGAEFLGDGGDVSFSTRGTQNWTVERLLQAHRQLEERGYVFVGYHGTFLEAAQSIVFGGVRARSQDLDAIWRGFYIAGDPALAYGYAQDQEPDARGRIRNGALLRVYVPRSSLPGFYRTSLTLAAPEAAGEVERLIGHPLPLRLDAITGPEEEGGRLETILGWPLAERTVVIPSAIPTDPRNVGGDLDPSSIPDKEQAISALPDYASQPGKPPREDLK
B6: HM2-LR immunotoxin (other)
chain: MEVQLQQSGAELVRPGASVKLSCTASGFNIKDDYMHWVKQRPEQGLEWIGWIDPENGDTEYASKFQGKATITADTSSNTAYLQLSSLTSEDTAVYYCTRSSVGYWGQGTTLTVSSGGGGSGGGGSGGGGSDVVMTQTPLSLPVSLGDQASISCRSSQSLVHSNGNTYLHWYLQKPGQSPKLLIYKVSNRFSGVPDRFSGSGSGTYFTLKISRVEAEDLGVYFCSQRTHVPYTFGGGTKLEIKKLKASGGRHRQPRGWEQLGGGGGSPTGAEFLGDGGDVSFSTRGTQNWTVERLLQAHRQLEERGYVFVGYHGTFLEAAQSIVFGGVRARSQDLDAIWRGFYIAGDPALAYGYAQDQEPDARGRIRNGALLRVYVPRSSLPGFYRTSLTLAAPEAAGEVERLIGHPLPLRLDAITGPEEEGGRLETILGWPLAERTVVIPSAIPTDPRNVGGDLDPSSIPDKEQAISALPDYASQPGKPPREDLK

Assays:
human GPC6 [1] = target: T1, human GPC6; assay: monoclonal phage ELISA
human GPC2 [2] = target: T2, human GPC2; assay: monoclonal phage ELISA
human GPC3 [3] = target: T7, human GPC3 (human, UniProt P51654 25-559, limits assumed); assay: monoclonal phage ELISA
T7 sequence (P51654 25-559 limits assumed): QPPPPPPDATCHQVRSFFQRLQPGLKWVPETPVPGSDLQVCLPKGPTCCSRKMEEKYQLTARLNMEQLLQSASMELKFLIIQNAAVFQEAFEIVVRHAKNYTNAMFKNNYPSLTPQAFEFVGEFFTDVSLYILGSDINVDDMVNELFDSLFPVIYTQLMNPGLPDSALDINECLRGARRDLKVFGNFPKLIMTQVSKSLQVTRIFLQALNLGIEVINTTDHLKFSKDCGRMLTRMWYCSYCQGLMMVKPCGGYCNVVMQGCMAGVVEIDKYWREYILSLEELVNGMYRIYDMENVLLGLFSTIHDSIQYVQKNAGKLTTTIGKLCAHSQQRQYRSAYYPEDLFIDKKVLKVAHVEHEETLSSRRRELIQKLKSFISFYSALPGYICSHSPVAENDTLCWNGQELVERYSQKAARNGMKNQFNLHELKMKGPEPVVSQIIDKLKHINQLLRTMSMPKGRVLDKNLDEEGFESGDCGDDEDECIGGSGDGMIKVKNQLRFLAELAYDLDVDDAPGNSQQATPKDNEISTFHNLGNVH

[4] = target: T3, human GPC5 (printed as 'GPCS'); assay: monoclonal phage ELISA
mouse GPC1 = target: T4, mouse GPC1; assay: monoclonal phage ELISA
human glypican-1 (GPC1) [5] = target: T5, human glypican-1 (GPC1); assay: Octet kinetic analysis
[6] = target: T6, cell-surface GPC1 on GPC1-expressing …
human glypican-1 (GPC1) [7] = target: T5, human glypican-1 (GPC1); assay: Octet kinetic analysis; remark: listed apart in the source
human glypican-1 (GPC1) [8] = target: T5, human glypican-1 (GPC1); assay: ELISA on GPC1, OD450 against concentration
human GPC6 [9] = target: T1, human GPC6; assay: ELISA
human GPC2 [10] = target: T2, human GPC2; assay: ELISA
human GPC3 [11] = target: T7, human GPC3; assay: ELISA
[12] = target: T3, human GPC5 (printed as 'GPCS'); assay: ELISA
human glypican-1 (GPC1) [13] = target: T5, human glypican-1 (GPC1); assay: Octet kinetic analysis; remark: listed apart in the source
human glypican-1 (GPC1) [14] = target: T5, human glypican-1 (GPC1); assay: Octet kinetic analysis (column Kdis)
human glypican-1 (GPC1) [15] = target: T5, human glypican-1 (GPC1); assay: Octet analysis

Binder	Kd (human glypican-1 (GPC1) [5]) [nM]	EC50 [6] [nM]	Kd (human glypican-1 (GPC1) [7]) [nM]	EC50 (human glypican-1 (GPC1) [8]) [nM]	Kd (human glypican-1 (GPC1) [13]) [nM]	kon (human glypican-1 (GPC1) [13]) [M⁻¹ s⁻¹]	koff (human glypican-1 (GPC1) [14]) [s⁻¹]	Kd (human glypican-1 (GPC1) [15]) [nM]	also measured
B1	1.3	–	–	–	–	–	–	–	binding result (human GPC6 [1]): no binding; binding result (human GPC2 [2]): no binding; binding result (human GPC3 [3]): no binding; binding result [4]: no binding; binding result (mouse GPC1): binds
B2	–	1.9	0.09	0.2	–	–	–	–	–
B3	–	3.8	0.08	0.1	–	–	–	–	–
B4	1.2	–	–	–	–	–	–	–	binding result (human GPC6 [9]): no binding; binding result (human GPC2 [10]): no binding; binding result (human GPC3 [11]): no binding; binding result [12]: no binding
B5	–	8.1	–	4.3	6.25	350000	0.00218	6.3	–
B6	–	–	–	–	6.94	297000	0.00206	6.9	–
